T1: Human recombinant AXL-FND1 (GST-FND1), from pET-41b(+) (human, UniProt P30530 225-331)
T1 construct: Expressed in E. coli, purified on Glutathione Sepharose; analyte in all Biacore measurements; GST put first by the usual layout of pET-41; not shown: GST-tag of vector pET-41b(+) (Novagen)
T1 sequence (looked up): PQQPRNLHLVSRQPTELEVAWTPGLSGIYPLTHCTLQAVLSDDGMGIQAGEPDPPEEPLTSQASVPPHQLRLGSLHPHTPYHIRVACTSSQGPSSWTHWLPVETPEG


Biological target: T1, Human recombinant AXL-FND1 (GST-FND1), …
Test: SPR (Biacore T100): antibody captured on Protein A, GST-FND1 as analyte
Description: Kinetic analyses of antigen-antibody reactions of humanized AXL antibodies were carried out using Biacore T100 (BIACORE). rec-Protein A (Zymed) (hereinafter, Protein A) was immobilized onto a sensor chip, various antibodies were bound to it, then an antigen as the analyte was flushed to measure the antibody-antigen interaction. Human recombinant AXL-FND1 (prepared in 2-2; hereinafter referred to as GST-FND1) prepared at various concentrations was used as the antigen. From the sensorgrams obtained through the measurements, kinetic parameters, namely binding rate constant kₐ (1/Ms) and dissociation rate constant kd (1/s), were calculated, and Kd (M) was calculated based on these values. Biacore T100 Evaluation Software (BIACORE) was used to calculate each of the parameters.
The sensor chips were produced by immobilizing approximately 3000 RU of Protein A onto CM5 (BIACORE) by amine coupling. Using the produced sensor chip, kinetic analyses were carried out on the interaction between the Protein A-bound antibodies and GST-FND1. HBS-EP+ was used as the running buffer, and the flow rate was set to 30 μL/min. Each antibody was prepared at 1 μg/mL using the running buffer, and was subjected to binding with Protein A for two minutes. GST-FND1 as the analyte was prepared at 0.5 and 2.0 μg/mL using HBS-EP+. Measurements were carried out by first binding the various humanized AXL antibodies, chimeric AXL antibodies, or mouse AXL antibodies of interest to Protein A, then applying an analyte solution to them for a two-minute interaction, and then switching to HBS-EP+ (BIACORE) for a two-minute measurement of the dissociation phase. After completion of measurement of the dissociation phase, 30 μL of 10 mM glycine-HCl (pH 2.0) was used for washing to regenerate the sensor chip. Such binding, dissociation, and regeneration were defined as one cycle of analysis. All experiments were performed at 25° C.
Affinity evaluation of each of the variants by Biacore was carried out by the method of Example 2.

| Kd [nM] | Binder |
| --- | --- |
| 2.49 | H9/L1 (antibody, human IgG1, kappa) heavy: not shown light: DVVMTQSPLSLPVTLGQPASISCQSSQNIVHTNGNTYLEWYQQKPGKAPELLIYKVSNRFSGVPDRFSGSGSGTDFTLKISRVEAEDVGVYYCFQGSHIPFTFGQGTKLEIKRTVAAPSVFIFPPSDEQLKSGTASVVCLLNNFYPREAKVQWKVDNALQSGNSQESVTEQDSKDSTYSLSSTLTLSKADYEKHKVYACEVTHQGLSSPVTKSFNRGEC |
| 2.4 | H9/L11 (antibody, human IgG1, kappa) heavy: not shown light: DVVMTQSPLSLPVTLGQPASISCQSSQNIVHTNGNTYLEWYQQKPGKAPELLIYKVSNRFSGVPDRFSGSGSGTDFTLKISRVEAEDVGVYYCFQGSHIPFTFGQGTKVEIERTVAAPSVFIFPPSDEQLKSGTASVVCLLNNFYPREAKVQWKVDNALQSGNSQESVTEQDSKDSTYSLSSTLTLSKADYEKHKVYACEVTHQGLSSPVTKSFNRGEC |
| 2.8 | H9/L34 (antibody, human IgG1, kappa) heavy: not shown light: DVVMTQSPLSLPVTLGRPASISCRSSRNIVHTNGNTYLEWYQQKPGKAPKLLIYKVSNRFSGVPDRFSGSGSGTDFTLKISRVEAEDVGVYYCFQGSHIPFTFGQGTKLEIKRTVAAPSVFIFPPSDEQLKSGTASVVCLLNNFYPREAKVQWKVDNALQSGNSQESVTEQDSKDSTYSLSSTLTLSKADYEKHKVYACEVTHQGLSSPVTKSFNRGEC |
| 2.92 | H9/L10 (antibody, human IgG1, kappa) heavy: not shown light: DVVMTQSPLSLPVTLGQPASISCRSSQNIVHTNGNTYLEWYQQKPGKAPELLIYKVSNRFSGVPDRFSGSGSGTDFTLKISRVEAEDVGVYYCFQGSHIPFTFGQGTKVEIERTVAAPSVFIFPPSDEQLKSGTASVVCLLNNFYPREAKVQWKVDNALQSGNSQESVTEQDSKDSTYSLSSTLTLSKADYEKHKVYACEVTHQGLSSPVTKSFNRGEC |
| 2.69 | H9/L37 (antibody, human IgG1, kappa) heavy: not shown light: DVVMTQSPLSLPVTLGRPASISCRSSRNIVHTNGNTYLEWYQQKPGKAPKLLIYKVSNRFSGVPDRFSGSGSGTDFTLKISRVEAEDVGVYYCFQGSHIPFTFGRGTKLEIKRTVAAPSVFIFPPSDEQLKSGTASVVCLLNNFYPREAKVQWKVDNALQSGNSQESVTEQDSKDSTYSLSSTLTLSKADYEKHKVYACEVTHQGLSSPVTKSFNRGEC |
| 3.07 | H9/L27 (antibody, human IgG1, kappa, V domains shown) VH: QVTLKESGPVLVKPTETLTLTCTVSGFSLSSFGVDWVRQAPGKGLEWMGVIWGGGSTNYNSALKSRLTISKDNSKSQVVLTMTNMDPVDTATYYCAGEGSKYGAWFAYWGQGTLVTVSS VL: DVVMTQSPLSLPVTLGQPASISCRSSRNIVHTNGNTYLEWYQQKPGKAPELLIYKVSNRFSGVPDRFSGSGSGTDFTLKISRVEAEDVGVYYCFQGSHIPFTFGQGTKLEIKR |
| 2.53 | H9/L5 (antibody, human IgG1, kappa, V domains shown) VH: QVTLKESGPVLVKPTETLTLTCTVSGFSLSSFGVDWVRQAPGKGLEWMGVIWGGGSTNYNSALKSRLTISKDNSKSQVVLTMTNMDPVDTATYYCAGEGSKYGAWFAYWGQGTLVTVSS VL: DVVMTQSPLSLPVTLGQPASISCRSSQNIVHTNGNTYLEWYQQKPGQAPELLIYKVSNRFSGVPDRFSGSGSGTDFTLKISRVEAEDVGVYYCFQGSHIPFTFGQGTKLEIKR |
| 2.46 | H9/L31 (antibody, human IgG1, kappa) heavy: not shown light: DVVMTQSPLSLPVTLGQPASISCRSSRNIVHTNGNTYLEWYQQKPGKAPKLLIYKVSNRFSGVPDRFSGSGSGTDFTLKISRVEAEDVGVYYCFQGSHIPFTFGQGTKLEIKRTVAAPSVFIFPPSDEQLKSGTASVVCLLNNFYPREAKVQWKVDNALQSGNSQESVTEQDSKDSTYSLSSTLTLSKADYEKHKVYACEVTHQGLSSPVTKSFNRGEC |
| 2.37 | H9/L35 (antibody, human IgG1, kappa) heavy: not shown light: DVVMTQSPLSLPVTLGQPASISCRSSRNIVHTNGNTYLEWYQQKPGKAPKLLIYKVSNRFSGVPDRFSGSGSGTDFTLKISRVEAEDVGVYYCFQGSHIPFTFGRGTKLEIKRTVAAPSVFIFPPSDEQLKSGTASVVCLLNNFYPREAKVQWKVDNALQSGNSQESVTEQDSKDSTYSLSSTLTLSKADYEKHKVYACEVTHQGLSSPVTKSFNRGEC |
| 3.54 | H9/L25 (antibody, human IgG1, kappa) heavy: not shown light: DVVMTQSPLSLPVTLGRPASISCRSSQNIVHTNGNTYLEWYQQKPGKAPELLIYKVSNRFSGVPDRFSGSGSGTDFTLKISRVEAEDVGVYYCFQGSHIPFTFGQGTKLEIKRTVAAPSVFIFPPSDEQLKSGTASVVCLLNNFYPREAKVQWKVDNALQSGNSQESVTEQDSKDSTYSLSSTLTLSKADYEKHKVYACEVTHQGLSSPVTKSFNRGEC |
| 2.55 | H9/L12 (antibody, human IgG1, kappa, V domains shown) VH: QVTLKESGPVLVKPTETLTLTCTVSGFSLSSFGVDWVRQAPGKGLEWMGVIWGGGSTNYNSALKSRLTISKDNSKSQVVLTMTNMDPVDTATYYCAGEGSKYGAWFAYWGQGTLVTVSS VL: DVVMTQSPLSLPVTLGQPASISCQSSQNIVHTNGNTYLEWYQQKPGEAPELLIYKVSNRFSGVPDRFSGSGSGTDFTLKISRVEAEDVGVYYCFQGSHIPFTFGQGTKVEIER |
| 3.06 | H9/L28 (antibody, human IgG1, kappa, V domains shown) VH: QVTLKESGPVLVKPTETLTLTCTVSGFSLSSFGVDWVRQAPGKGLEWMGVIWGGGSTNYNSALKSRLTISKDNSKSQVVLTMTNMDPVDTATYYCAGEGSKYGAWFAYWGQGTLVTVSS VL: DVVMTQSPLSLPVTLGQPASISCRSSQNIVHTNGNTYLEWYQQKPGKAPKLLIYKVSNRFSGVPDRFSGSGSGTDFTLKISRVEAEDVGVYYCFQGSHIPFTFGQGTKLEIKR |
| 2.45 | H9/L13 (antibody, human IgG1, kappa, V domains shown) VH: QVTLKESGPVLVKPTETLTLTCTVSGFSLSSFGVDWVRQAPGKGLEWMGVIWGGGSTNYNSALKSRLTISKDNSKSQVVLTMTNMDPVDTATYYCAGEGSKYGAWFAYWGQGTLVTVSS VL: DVVMTQSPLSLPVTLGQPASISCQSSQNIVHTNGNTYLEWYQQKPGQAPELLIYKVSNRFSGVPDRFSGSGSGTDFTLKISRVEAEDVGVYYCFQGSHIPFTFGQGTKVEIER |
| 2.97 | H9/L3 (antibody, human IgG1, kappa, V domains shown) VH: QVTLKESGPVLVKPTETLTLTCTVSGFSLSSFGVDWVRQAPGKGLEWMGVIWGGGSTNYNSALKSRLTISKDNSKSQVVLTMTNMDPVDTATYYCAGEGSKYGAWFAYWGQGTLVTVSS VL: DVVMTQSPLSLPVTLGQPASISCQSSENIVHTNGNTYLEWYQQKPGKAPELLIYKVSNRFSGVPDRFSGSGSGTDFTLKISRVEAEDVGVYYCFQGSHIPFTFGQGTKLEIKR |
| 3.49 | H9/L29 (antibody, human IgG1, kappa) heavy: not shown light: DVVMTQSPLSLPVTLGQPASISCRSSQNIVHTNGNTYLEWYQQKPGKAPELLIYKVSNRFSGVPDRFSGSGSGTDFTLKISRVEAEDVGVYYCFQGSHIPFTFGRGTKLEIKRTVAAPSVFIFPPSDEQLKSGTASVVCLLNNFYPREAKVQWKVDNALQSGNSQESVTEQDSKDSTYSLSSTLTLSKADYEKHKVYACEVTHQGLSSPVTKSFNRGEC |
| 2.64 | H9/L4 (antibody, human IgG1, kappa, V domains shown) VH: QVTLKESGPVLVKPTETLTLTCTVSGFSLSSFGVDWVRQAPGKGLEWMGVIWGGGSTNYNSALKSRLTISKDNSKSQVVLTMTNMDPVDTATYYCAGEGSKYGAWFAYWGQGTLVTVSS VL: DVVMTQSPLSLPVTLGQPASISCRSSQNIVHTNGNTYLEWYQQKPGEAPELLIYKVSNRFSGVPDRFSGSGSGTDFTLKISRVEAEDVGVYYCFQGSHIPFTFGQGTKLEIKR |
